Laboratory results from paper PMC4351158 (Structure (London, England : 1993), 2015).
Where no end group is shown, it is not given here. fluorescein = fluorescein, a fluorescent label on the peptide N-terminus

Columns and labels:
Assay in all cases: fluorescence polarisation
[1] = biological target: T1, wild-type DegS (residues 27-355, without the membrane anchor) (E. coli, UniProt P0AEE3 27-355)
T1 sequence (looked up): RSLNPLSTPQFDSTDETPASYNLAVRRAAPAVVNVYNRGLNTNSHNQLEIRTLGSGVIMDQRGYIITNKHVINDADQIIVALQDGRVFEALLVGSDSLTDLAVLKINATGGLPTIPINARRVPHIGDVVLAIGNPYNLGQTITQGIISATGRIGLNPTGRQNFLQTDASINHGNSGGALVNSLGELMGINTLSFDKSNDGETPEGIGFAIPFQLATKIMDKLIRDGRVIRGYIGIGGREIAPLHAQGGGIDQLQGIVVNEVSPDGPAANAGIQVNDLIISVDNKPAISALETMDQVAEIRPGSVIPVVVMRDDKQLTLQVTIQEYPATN

[2] = biological target: T2, DegS Q191A (E. coli, UniProt P0AEE3 27-355, Q191A)
T2 sequence (looked up): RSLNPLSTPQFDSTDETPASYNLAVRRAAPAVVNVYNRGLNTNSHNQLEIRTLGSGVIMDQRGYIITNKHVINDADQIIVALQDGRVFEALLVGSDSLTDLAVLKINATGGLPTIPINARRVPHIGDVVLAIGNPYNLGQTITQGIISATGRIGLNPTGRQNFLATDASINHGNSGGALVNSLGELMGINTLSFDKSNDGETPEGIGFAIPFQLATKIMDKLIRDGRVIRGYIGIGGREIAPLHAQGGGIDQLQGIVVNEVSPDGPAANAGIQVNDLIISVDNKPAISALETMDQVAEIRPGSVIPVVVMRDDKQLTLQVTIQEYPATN

[3] = biological target: T3, DegS F220A (E. coli, UniProt P0AEE3 27-355, F220A)
T3 sequence (looked up): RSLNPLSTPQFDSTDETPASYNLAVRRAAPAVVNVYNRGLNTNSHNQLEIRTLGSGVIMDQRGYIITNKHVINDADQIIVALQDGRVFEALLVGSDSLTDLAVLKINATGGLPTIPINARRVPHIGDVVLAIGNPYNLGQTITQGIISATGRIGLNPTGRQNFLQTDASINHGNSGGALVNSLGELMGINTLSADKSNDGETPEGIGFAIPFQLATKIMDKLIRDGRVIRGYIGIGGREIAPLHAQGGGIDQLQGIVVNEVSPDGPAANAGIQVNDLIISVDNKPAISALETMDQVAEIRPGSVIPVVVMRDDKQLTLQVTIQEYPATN

[4] = biological target: T4, DegS H198P/I232A (E. coli, UniProt P0AEE3 27-355, H198P | I232A)
T4 sequence (looked up): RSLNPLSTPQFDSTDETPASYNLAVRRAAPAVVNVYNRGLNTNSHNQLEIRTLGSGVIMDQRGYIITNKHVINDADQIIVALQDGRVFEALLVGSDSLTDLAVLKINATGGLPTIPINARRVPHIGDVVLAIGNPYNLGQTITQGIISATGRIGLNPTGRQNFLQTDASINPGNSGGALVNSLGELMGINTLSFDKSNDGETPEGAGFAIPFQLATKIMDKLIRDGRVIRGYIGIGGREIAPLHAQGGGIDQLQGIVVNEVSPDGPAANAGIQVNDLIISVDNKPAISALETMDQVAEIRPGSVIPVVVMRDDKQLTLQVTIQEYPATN

Kd [1]: 4 ± 0.4 µM | Kd [2]: 3.4 ± 1.3 µM | Kd [3]: 2.1 ± 0.1 µM | Kd [4]: 2.7 ± 0.3 µM
Binder: fluorescein-DNRDGNVYYF [fluorescent OMP peptide fluorescein-DNRDGNVYYF]
